Assay results: patent US20240285788A1, “CONJUGATE OF ANTIBODY AND FUNCTIONAL SUBSTANCE OR SALT THEREOF, AND ANTIBODY DERIVATIVE AND COMPOUND USED IN PRODUCTION OF THE SAME OR SALTS THEREOF” (Ajinomoto Co., Inc., priority 2021, published 2024)

Key:
[1] = Evaluation of degree of hydrophobicity by hydrophobic column chromatography (HIC-HPLC); assay type: physicochemical; details: for Retention time: ADC mimics from thiol group-introduced trastuzumab, DAR 2
Method: (§1) According to a previous report (Anal. Chem., 2019, 91, 20, 12724-12732, which is incorporated herein by reference in tis entirety), HIC-HPLC analysis was performed. Measurement was performed using the following conditions. Degrees of hydrophobicity of an ADC can be evaluated by retention time of the ADC in HIC chromatogram.
Measurement system: Chromaster (registered trademark) (manufactured by Hitachi, Ltd.)
Column: Tosoh Biobuthyl NPR 2.5 μm 4.6×35 mm column manufactured by Tosoh Bio-Sciences Inc.
Gradient: linear gradient of eluent A/B
Eluent B: 25 mM Na2HPO4/NaH2PO4 (pH 6.0, 25 v/v % isopropanol added)
For DAR analysis of the ADC mimics synthesized in Example 7 and Comparative Example 2, HIC-HPLC analysis was performed according to a previous report (Anal. Chem., 2019, 91, 20, 12724-12732, which is incorporated herein by reference in its entirety). Measurement was performed using the following conditions.
HIC-HPLC analysis was performed using the condition of Example 8. Measurement was performed using the following conditions. A degree of hydrophobicity of ADC mimic can be evaluated by retention time of ADC in HIC chromatogram.
HIC-HPLC analysis was performed using the condition of Example 8.
Subsequently, hydrophobicity of an ADC was evaluated using HIC-HPLC. Measurement was performed according to Example 9. A degree of hydrophobicity of an ADC can be evaluated by retention time of ADC in HIC chromatogram.
as §1, with “its” for “tis”

[2] = Evaluation of aggregation ratio by size exclusion chromatography (SEC-HPLC); assay type: physicochemical
Method: SEC-HPLC analysis was performed according to a previous report (Chemistry Select, 2020, 5, 8435-8439). Measurement was performed using the following conditions.
Measurement system: 1260 HPLC system (manufactured by Agilent)
Column: AdvanceBio SEC 300 Å, 2.7 μm, 4.6 mm×150 mm, manufactured by Agilent Technologies
Eluent: 100 mM sodium dihydrogen phosphate/sodium hydrogen phosphate, aqueous solution of 250 mM sodium chloride (pH 6.8), 10% v/v isopropanol
SEC-HPLC analysis was performed according to Example 10.

SMILES | Retention time ([1]; Table 2, HIC-HPLC) [min] | Retention time ([1]; Table 20) [min] | degree of hydrophilicity judged from retention time in HIC chromatogram (in words) [1] | tendency of aggregation ratio by SEC-HPLC (in words) [2]
CCCCCNC(=O)CCSC1CC(=O)N(CCCCCNC(=O)C(OC(=O)N(C)CC(=O)NCc2ccc3ccc4cccc5ccc2c3c45)c2ccc(NC(=O)[C@H](CCCNC(N)=O)NC(=O)[C@@H](NC(=O)OCc3ccccc3)C(C)C)cc2)C1=O (stereo partly drawn) [ADC mimic 5] | 13.6 | 13.6 | – | –
CSC1CC(=O)N(CCCCCNC(=O)C(OC(=O)N(C)CC(=O)NCc2ccc3ccc4cccc5ccc2c3c45)c2ccc(NC(=O)[C@H](CCCNC(N)=O)NC(=O)[C@@H](NC(=O)[C@H](CCC(=O)O)NC(C)=O)C(C)C)cc2)C1=O (stereo partly drawn) [ADC mimic 12] | – | – | more hydrophilic | –
CSC1CC(=O)N(CCCCCNC(=O)C(OC(=O)N(C)CC(=O)NCc2ccc3ccc4cccc5ccc2c3c45)c2ccc(NC(=O)[C@H](CCCNC(N)=O)NC(=O)[C@@H](NC(=O)[C@H](CCC(=O)O)NC(=O)[C@H](CCC(=O)O)NC(C)=O)C(C)C)cc2)C1=O (stereo partly drawn) [ADC mimic 13] | – | – | more hydrophilic | low aggregation ratios
CSC1CC(=O)N(CCCCCNC(=O)C(OC(=O)N(C)CC(=O)NCc2ccc3ccc4cccc5ccc2c3c45)c2ccc(NC(=O)[C@H](C)NC(=O)[C@@H](NC(=O)[C@H](CCC(=O)O)NC(C)=O)C(C)C)cc2)C1=O (stereo partly drawn) [ADC mimic 14] | – | – | more hydrophilic | –
